The source of these data is ChEMBL document CHEMBL1127885, “Benzylpenicillin methyl phosphate. A penicillin prodrug that inactivates RTEM -lactamase” (Bioorg Med Chem Lett, 1994).

Substrate in the data set: COP(=O)(O)OC(=O)[C@@H]1N2C(=O)[C@@H](NC(=O)Cc3ccccc3)[C@H]2SC1(C)C
In words: Km against beta-lactamase in Escherichia coli.

B1: Beta-lactamase TEM (Escherichia coli), P62593 (protein)
chain: MSIQHFRVALIPFFAAFCLPVFAHPETLVKVKDAEDQLGARVGYIELDLNSGKILESFRPEERFPMMSTFKVLLCGAVLSRVDAGQEQLGRRIHYSQNDLVEYSPVTEKHLTDGMTVRELCSAAITMSDNTAANLLLTTIGGPKELTAFLHNMGDHVTRLDRWEPELNEAIPNDERDTTMPAAMATTLRKLLTGELLTLASRQQLIDWMEADKVAGPLLRSALPAGWFIADKSGAGERGSRGIIAALGPDGKPSRIVVIYTTGSQATMDERNRQIAEIGASLIKHW
What is called Km is the concentration of substrate that gives half-maximal velocity. Regarding B1, the Km was more than 50 mM.
